Data: the nanobody polyreactivity screen of Harvey et al. (2022)

Test: yeast display, Sf9 membrane polyspecificity reagent, FACS + sequencing; frameworks hold sequencing errors
Procedure, shortened: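 Synthetic nanobody libraries on Saccharomyces cerevisiae BJ5465 were galactose-induced for 36–48 hours, stained 1 hour at 4 °C with 10% biotinylated, detergent-solubilized Sf9 membrane reagent and enriched on streptavidin microbeads. FACS then separated cells into low and high (top ~1%) gates by anti-HA (expression) and streptavidin (reagent binding) fluorescence. Genes were colony-PCR amplified, MiSeq 2 × 250 sequenced and CDR-length filtered. A clone's polyreactivity label is that of its gate of origin.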

| Sequence | polyreactivity (PSR sort gate) |
| --- | --- |
| QVQLVESGGGLVQAGGSLRLSCAASGITFRYYVMGWYRQAPGKERELVASISWGGGSTYYADSVKGRFTISRDNAKNTVYLQMNSLKPEDTAVYYCAARVPRPSYRGMNYWGQGTQVTVSS | high polyreactivity |
| QVQLVESGGGLVQAGGSLRLSCAASGFTFLYNAMGWYRQAPGKERELVAAIDSGGNTNYADSVKGRFTISRDNAKNTVYLQMNSLKPEDTAVYYCAADVVSVGQGTADYDYWGQGTQVTVSS | low polyreactivity |
| QVQLVESGGRLVQAGGSLRLSCAASGRIFARYAMGWYRQAPGKERELLASINSGGNTYYADSVKGRFTISRDNAKNTVYLQMNSLKPEDTAVYYCAAVVGRRPSSRSRFEYDYWGQGTQVTVSS | low polyreactivity |
| QVQLVESGGGLVQAGGSLRLSCAASGRTFRYYAMGWYRQAPGKERELVASISSTGGNTYYADSVKGRFTISRDNAKNTVYLQMNSLKPEDTAVYYCAAGAWTRGQYYYWGQGTQVTVSS | high polyreactivity |
| QVQLVESGGGLVQPGGSLRLSCAASGSIFLRYAMGWYRQAPGKERELVAGITSGGSTNYADSVKGRFTISRDNAKNTVYLQMNSLKPEDTAVYYCNKDLPDWGQGTQVTVSS | low polyreactivity |
| QVHLVDSGGGLVQAGGSLRLSCAASGRTSIRYAMAWYRQAPGKERELVAAITYAAGSTYYADSVTGRFTISRDNAKNTVYLQMNSLKPEDTAVYYCNARVYYHYDFWGQGTQVTVSS | high polyreactivity |
| QVQLVESGGGLVQAGGSLRLSCAASGSIFIGYAMGWYRQAPGKERELVAAITNGGRTYYADSVKGRFTISRDNAKNTVYLQMNSLKPEDTAVYYCAAVPSQTYRRTPYLWHDYWGQGTQVTVSS | high polyreactivity |
| QVQLVESGGGLVQAGGSLRLSCAASGIIFSVNAMGWYRQAPGKERELVAAISGSGGRTYYADSVKGRFTISRDNAKNTVYLQMNSLKPEDTAVYYCAARRTGKSYYGSRSGFDYWGQGTQVTVSS | high polyreactivity |
| QVQLVESVGGLVQAGGSLRLSCAASALAMGWYRHAPGKERELVAVITSDGRTYYADSVKGRFTISRDNAKNTVYLQMNSLKPEDTAVYYCARDSRTIRYYAWFYPFRYDYWGQGTQVTVSS | low polyreactivity |
| QVQLVESGGGLVQAGGSLRLSCAASGIIFDHYAMGWYRQAPGKERELVAAISTGGGNTYYADSVKGRFTISRDNAKNTVYLQMNSLKPEDTAVYYCAARRGTGSYSYRYPYGYDYWGQGTQVTVSS | low polyreactivity |
| QVQLVESGGGLVQAGGSLRISFAASGSTFDIYVMGWYRQAPGKERELVAAISRVGNTSYADSVKGRFTISRDNAKNTVYLQMNSLKPEDKAVYYCAADAPSWYDRQYDYWGKGTQVTVSS | low polyreactivity |
| QVQLVESGGGLVQAGVSLRLSCAASGFIFSTYAMGGYRQAPGKERELFASIDWSGDSTYYADSVKGRFTISRDNAKNTVYLQMNSLKPEDTAVYYCAASLWPDYEYDYWGQGTQVTVSS | low polyreactivity |
| QVQLVESGGGLVQAGGSLRLSCAASGLIFGRYTMGWYRQAPGKEREFVAAISRSGGSTYYADSVKGRFTISRDNAKITVYLQRNSLKPEDTAVYYCAARGSYTRPKRYGYWGQGTQVTVSS | high polyreactivity |
| QVQLVESGGGLVQAGGSLRLSCAASGSTFTAYAMGWYRQAPGKERELVAVITSGGGTFYADSVKGRFTISRDNAKNTVYLQMNSLKPEDTAVYYCNAARTYPGTYIYRYGYWGQGTQVTVSP | high polyreactivity |
| QVQLVESGGGLVQAGGSLRLSCAASGSILYFNAMGWYRQAPGKEREFVATIRRSGGSTNYADSVKGRFTISRDNAKNTVYLQMNSVKREDTAVYYCNARLSSGYTSWRYNYWGQGTQVSVSS | high polyreactivity |
| QVQLVESGGGLVQAGGSLRLSCAASGRIFYNAMGWYRQAPGKERELVAAITSNGGSTYYADSVKGRFTISRDNAKNTVYLQMNSLKPEDTAVYYCNAAIRYTASATHAFDYWGQGTQVTVSS | low polyreactivity |
| QVQLVESGGGLVQAGGSLRLSCAASGSTFGPYAMGWYRQAPGKERELVADITVSDGSTYYADSVKGRFTISRDNAKNTVYLQMNSLKPEDTAVYYCAAEIYYSFGYWGQGTQVTVSS | low polyreactivity |
| QVQLQESGGGMVQAGGSLRLSSAASGYISWADYMGWYRQAPGKERELVAGIGYGSTTYYADSVKGRFTISRDNAKNTAYLQMNSLKPEDTAVYYCAVGCYRDTAYKYWGQGTQVTVSS | low polyreactivity |
| QVQLVESGGGLVQAGASLRLSCAASGSTFVIYTMGWYRQAPGKERDLVAAISWSGGITRYADSVKGRFTISRDNGKNTVYLQMNSLKPEDTAVYYCNASQWPSRFDYWGQGPQVTVSS | low polyreactivity |
| QVQLVESGGGLVQAGGSLRLSCAASGFTFTRNTMGWYRQAPGKERELVADINWDDGSTNYADSVKGRFTISRDNAKNTVYLQMNSLKPEDTAVYYCAADYYFYYLYPSSNLYNYWGQGTQVTVSS | low polyreactivity |
| QVQLVDSGGGLVQAGGSLRLSCAASGFIFDVYAMGGYRQAPGKERELVAAITSGDGTNYADSVKGRFTISRDNAKNTVYFQMNSLKPEDTAVYYCAADDGVTYRGIIFSYWGQGTQVTVSS | low polyreactivity |
| QVQLVESGGGLVQAGGSLRLSCADSGRHFSFNMGWYRQAPGKERELVAAISRRGGSTYYADSVKGRFTISRDNAKNTVYLQMNSLKPEYTAVYYCAVIPRQTYSGGGYDYWGQGTQVTVSS | high polyreactivity |

| Sequence | polyreactivity (PSR sort gate) |
| --- | --- |
| QVQLVESGGGLVQAGGSLRLSCAASGFTFDGYGMGWYRHAPGKERELVAVITSGGSTKYADSVKGRFTISRDNAKNTVYLQMNSLKPEDTAVYYCNVVGGRPNPYYDEMDYWGQGPQVTVSS | low polyreactivity |
| QVQLVESGGGLVQAGGSLRLSCAASGSIFLGNAMGWYRQAPGKERELVAAISSITGRTYYAESVKGRFTISRDNAKNTVYLQMNSLKPEDTAVYYCNKVKRSFIVKTDDYWGQGTQVTVSS | high polyreactivity |
| QVQLVESGGGLVQAGGSLRLTCAASGRIFSHNTMGWYRQAPGKERELVAAISGGGGRTYYADSVKGRFTISRDNAKNTVYLQMKSLKPEDTAVYYCAAVRVSYRSLSKSYYWGQGTQVTVSS | high polyreactivity |
| QVQHVESGGGLVQAGGSLRLSCAASGSTYTVYAMGRDRQAPGKERELVAAISGSGGRTYYADSVKGRFTISRDNAKNTVYLQMNILKPEDTGVYYCASQGNYWGQGTQVTVSS | high polyreactivity |
| QVQLVESGGGLVQAGGSLRLSCAASGTTFGRNTMGWYRQAPGKERELVAAISKSGGSTRYADSVKGRFTISRDNAKNTVYLQMNRLKAEDTAFYYCAARVYSLGYGGDYWGQGTQVTVSS | high polyreactivity |
| QVQLVEAGGGLVQAGGSLRLSCAASGRIFRTYAMGWYRQAPGKESELVAAINISGDRTYYADSVKGRFTISRDHAKNTVYLQMNSLKPEDTAVYYCAAAGYRYWGAIYYWGQGTQVTVSS | high polyreactivity |
| QVQLVESGGGLVQAGGSLRLSCAASGFTFGSYAMGWYRQAPGKERELVARISSDGSTNYAVSVNGRFTISRDNAKNTVYLQMNSLKPEDTAVYYCAADPVHRFPGTGGYWGQGTQVTVSS | low polyreactivity |
| QVQLVESGGGLVQAGGSLRLSCAASGFIFRYYAMGWSRQAPGIEMELVAAINASGGRTYYADSVKGRFTISRDNARNTVYLQMNSLKPEDTAVYYCAAYRSYQTFDYWGQGTQVTVSS | high polyreactivity |
| QVQLVESGGGLVQAGGSLRLSCAASGFIFNHYAMGWYRQAPGKEREFVAAISWSGGSTYYADSVKGRFTISRDNAKNTVYLQMNSLKPEDTAVYYCAASYNGLWHGDYDYWGQGTQVTVSS | low polyreactivity |
| QVQLVESGGGLVQAGGSLRLSCAASGIIFYDYVMGWYRQAPGKERELVTAISSNGGSTYYADSVKGRFTISRDNAKNTVYLQMNRLKPEDTAVYYCAAEGKSYPWPWYFDYWGQGTQVTVSS | high polyreactivity |
| QVQLVESGGGLVQAGGSLRLSCAASGSTFVGYAMGWYRQAPGKERELVADIDSIGGSTYYADSVKGRFTISRDNAKNTVYLQMNSMKPEDTAVYYCAARRFDTALVLYDYWGQGSQVTVSS | low polyreactivity |
| QVQLVESGGGLGQAGGSLRLSSAASGFTFRRNAMGWYRQAPGKERELVAAINVRDGSTYYADSVKGRFTISRDNAKNTVYLQMNSLKPEDTAVYYCAAEFFQGYYWYYYWGQGTQVTVSS | high polyreactivity |
| QVQLVESGGGLVQAGGSLRLSFAASGSTFSSNAMGWYRQAPGKERELVAAISVNGGSTNYADSVKGRFTISRDNAKNTVYLQMNSLKPEDTAVYYCDAEPDKVAFYRGDYWGQGTQVTVSS | low polyreactivity |
| QVQLVESGGGLVQAGGSLRLSCAASGSIFYTNAMGWYRQATGKERELVAVITASGGSTYYADSVKGRFTISRDNAKNTVYLQMNSLKPEDTAVYYCAADPVFNYDYWGQGTQVTVSS | low polyreactivity |
| QVQLVESGGGLVQAGGSLRLSCAACGLTFDDYAMGWSRQAPGKERELVAAISKSGDGTYYADSVKGRFTISRDNAKNTVYLQMNSLKPEDTAVYYCNADAKYWGFVYWWFGEDNWGQGTQVPVSS | low polyreactivity |
| QVQLVESGGGLVQAGGSLRLSCAASGSIFGTNGMGWYRQAPGKERELVAAITRRGGSTYADSVKGRFTISRDNAKNTVYLQMNSLKPEDTAVYYCAVDQGYVVRLAWIYGYWGQGTQVSVSS | low polyreactivity |
| QVQLVESGGGLVQAGGSLRLSCAASGRTFAPYAMGWYRQAPGKERELVAGITYRTGNTYYADSVKGRFTISRDNAKNTVYLQMNTLKPEDTGVYYCAAYSGYYRPRYNYWGQGTQVTVSS | high polyreactivity |
| QVQLVESGGGLVQAGGSLRLSCAASGRIFVPYAMGWYRPAPGKERELVAAITWRGGRTYYADSVKGRFTISRDNAKNTVYLQMNSLKPEDTAVYYWAARGWTVTERYYWGQGTQVTVSS | high polyreactivity |
| QVQLVESGGGLVQAGGSLRLSCAASGRTFRNNAMGWYRQAPGKEREFVAVISNTGGSTYYADSVKGRFTISRDNAKNTVYLQMYSLKPEDTAVYYCAVRPRYSQYYYWGQGTQVTVSS | high polyreactivity |
| QVQLVESGGGLVQAGGSLRLSCAASGYTFYPYAMGWYRQAPGKERELVAAISGGASTYYADSVKGRFTISRDNAKNTVYLHMNSLKPEDTAVYYCAVSVYTYVVWYVAATYDYWGQGTQVTVSS | low polyreactivity |
| QVQLVESGGGLVQAGGSLRLSCAASGRISVFNAMGWYRQAPGKERELVATITDGGSTYYADSVKGRFTISRDNAKNTVYLQMNSLKPEDTAVYYCAKKQVTTDVSSETFVLEMDYWGQGTQVTVSS | low polyreactivity |
